The values that follow come from PMC8596125, “Self‐Stabilized Supramolecular Assemblies Constructed from PEGylated Dendritic Peptide Conjugate for Augmenting Tumor Retention and Therapy” (Advanced Science, 2021).

The subject of one data set is L02 cells. Nature of the data set: Cytotoxicity, CCK-8 assay, L02. Type of data set: cell-based, human. The following applies: L02 normal cells, 24 h (PDP 24 h and 48 h), CCK-8, n = 3. The method, then:
Academy of Science Cell Bank for Type Culture Collection (Shanghai, China) and cultured in RPMI-1640 medium, supplemented with 10% fetal bovine serum (FBS), penicillin G (100 U mL-1) and streptomycin (100 μg mL-1), and incubated in 5% CO2 […]
1.3.7 In vitro ROS generation
The intracellular ROS generation was analyzed by using a peroxide-sensitive fluorescent probe, 2′, 7′- dichlorofluorescin-diacetate (DCFH-DA, Beyotime, Beijing, China). According to the manufacturer’s instruction, cells (1×10^6 cells per well) were treated SSAs and Ppa at the same concentration of 1 μg Ppa mL-1. […] 20,000 events were collected and Flowjo software was used for quantifying the intensity of fluorescence.
The CCK-8 assay was used to examine the photodynamic therapeutic effect of SSAs on cell viability against three cell lines. […] After 24 h, the spent media was replaced and the cell viability was assessed using the CCK-8 reagent. The absorbance at […] of each well was recorded on a microplate reader. […] IC50 values were calculated by using nonlinear regression in software Graphpad Prism7. The cytotoxicity of SSAs and Ppa with or without laser against A549 cell line was also measured through the same procedure.
(§1) The cytotoxicity of SSAs and PDP without laser irradiation was also measured by […]

The next data set concerns 4T1 cells. Nature of the data set: Cytotoxicity, CCK-8 assay, 4T1. The data set is classed as cell-based, mouse. The following applies: no light, CCK-8, n = 3. The method, then:
The CCK-8 assay was used to examine the photodynamic therapeutic effect of SSAs on cell viability against three cell lines. 4×103 4T1 cells per well were seeded in a 96-well plate, and then incubated overnight. The cells were treated with different concentrations of Ppa and SSAs at an equivalent Ppa dose. After 24 h incubation, the medium was replaced with fresh one, and the wells were irradiated using a 660 nm laser with 1 J cm−2. After 24 h, the spent media was replaced and the cell viability was assessed using the CCK-8 reagent. The absorbance at […] of each well was recorded on a microplate reader. Untreated cells were served as a control. Results were presented as the average cell viability by following the manufacturer’s instruction. IC50 values were calculated by using nonlinear regression in software Graphpad Prism7. The cytotoxicity of SSAs and Ppa with or without laser against A549 cell line was also measured through the same procedure.
as §1
In general terms: Tetrazolium assays rely on reduction of a dye to a coloured formazan, in cell work by metabolically active cells.

Data set [1] concerns mouse red blood cells (RBCs). Nature of the data set: Hemolysis of erythrocytes. Type of data set: cell-based. The settings on record: up to 10.0 mg mL-1, 37 °C, 12 h, absorbance 540 nm. The method, then: with 6×105 A549 cells subcutaneously on the right flank for the A549 model. About 2 weeks after implantation, mice with a tumor volume size of 100 mm3 were used for biodistribution and imaging, and mice with a tumor volume size of 50 mm3 for […]
1.3.11 Blood compatibility
Erythrocytes morphologies and aggregation
Erythrocytes were collected from female BALB/c mice, and erythrocytes suspension was prepared by centrifuging the citrated whole blood at 1000 g for 5 min at room temperature. After the plasma and buffy coat layers were removed, the erythrocytes were washed with PBS 3 times. […]
The dried erythrocytes samples were coated with gold and analyzed under a SEM. […]
Erythrocytes were diluted with PBS to prepare the erythrocyte suspension. […] The absorbance of the supernatant was measured with a Microplate Reader at 540 nm, and hemolysis rate was determined using the following […]
Where AS is the absorbance of the sample, A100 is the absorbance of lysed erythrocytes in H2O (a positive control), and A0 is the absorbance of 0% hemolysis in PBS (a negative control). […]
The backs of healthy BALB/c mice were depilated 3 days before treatment to ensure that all injures had recovered. […] The degree of skin response was examined and scored according to Table S5, and Paraffin sections of the skin were stained with hematoxylin and eosin (H&E) according to the manufacturer's instructions.[3] […]

Data set [2] is described as follows: Disassembly behavior in Triton X-100, NaCl or urea (DLS). Type of data set: physicochemical. The settings on record: 1 h incubation, n = 6. The method, then: (§2) 1.3.2 Size, zeta potential and morphology
(§3) The size, polydispersity index (PDI), correlation coefficient and zeta potential of self-stabilized supramolecular assemblies (PDPP) were measured by DLS, and the morphology and particle size of PDPP were observed under a TEM. Briefly, PDPP was dissolved in Milli-Q water and ultrasonically dispersed to prepare PDPP solutions at different concentrations (0.1, 0.5, 1.0, 5.0, and 10.0 mg mL-1) for DLS, TEM measurements. Furthermore, the effects of hydrophobic force, ionic interaction, and hydrogen bonding on the supramolecular self-assembly of PDPP were assessed by adding Triton X-100, NaCl, and urea to the PDPP solution with the final concentrations of 1, 5, 10, 20, 50 and 100 mM for Triton X-100, NaCl, and urea. After incubation for 1 h, the size changes of PDPP were recorded by DLS. […]

Data set [3] is described as follows: Critical assembly concentration (pyrene fluorescence probe). Type of data set: physicochemical. The following applies: in H2O, pyrene as fluorescence probe. As to the method:
Ppa was dissolved in anhydrous DMSO and then diluted in different concentrations.
The absorbance values of PDPP at 667 nm were obtained and the drug loading was calculated according to the standard absorption curve. Drug loading content (DLC) = (weight of Ppa in PDPP / weight of PDPP) × 100%.
as §2
as §3, with “Briefly, PDPP was dissolved in Milli-Q water and ultrasonically dispersed to prepare PDPP solutions at different concentrations (0.1, 0.5, 1.0, 5.0, and 10.0 mg mL-1) for DLS, TEM measurements.” left out
(§4) The colloidal stability of PDPP was assessed by monitoring the change in the size and PDI as a function of time. PDPP were added in H2O, PBS, H2O containing 10% of fetal bovine serum (FBS), and PBS containing 10% of FBS respectively, and these mixtures were incubated at 37℃ in a humidified chamber, and their sizes and PDI were monitored by DLS at a pre-determined time. […]
The CAC of PDPP was determined by using pyrene as a fluorescence probe. […]
Fluorescence emission spectrum […]

Data set [4] in a line: Size, PDI and zeta potential by DLS. The data set is classed as physicochemical. The method, then: as §2
(§5) The size, polydispersity index (PDI), correlation coefficient and zeta potential of self-stabilized supramolecular assemblies (PDPP) were measured by DLS, and the morphology and particle size of PDPP were observed under a TEM. […]
(§6) 1.3.3 Colloidal stability
as §4

A short description of data set [5]: Colloidal stability (size and PDI over time by DLS). Type of data set: physicochemical. The settings on record: H2O, PBS, H2O or PBS with 10% FBS, 37 °C, 7 d, n = 3. As to the method: as §2, §5, §6, §4

Regarding PEG‐dendritic peptide [PDP], the “Cytotoxicity without laser irradiation” value with L02 cells and in the data set on 4T1 cells was “no significant cytotoxicity” in each case. The Hemolysis result in data set [1] is “no hemolysis is observed and detected”.
For “PEG‐dendritic peptide‐pyropheophorbide a [PDPP]”, the “Change in size and PDI after dispersion in NaCl or urea solution” value in data set [2] (1-100 mM NaCl or urea) is recorded as “no significant change”. Besides, in data set [2] (Triton X-100 at a high concentration (1-100 mM tested)), the “Disassembly behavior in Triton solution” value was “disassembly behaviors of PDPP would have occurred”. Also, the “Critical assembly concentration (CAC)” value in data set [3] came out at 4.85 µg/mL. The PDI is 0.152±0.036 in data set [4] (in H2O), 0.167±0.012 in data set [4] (in H2O+10%FBS), 0.137±0.036 in data set [4] (in PBS) and 0.154±0.013 in data set [4] (in PBS+10%FBS). Besides, the Size in data set [4] (in H2O) amounted to 104.68 ± 15.10 nm·days; in data set [4] (in H2O+10%FBS), 96.13 ± 9.72 nm·days; in data set [4] (in PBS), 100.38 ± 19.12 nm·days; in data set [4] (in PBS+10%FBS) it was 102.58 ± 8.94 nm·days. For the same substance, the “Zeta Potential” value is given as -25.49±0.58 mV in data set [4] (in H2O), -13.57±0.85 mV in data set [4] (in H2O+10%FBS), -5.28±7.86 mV in data set [4] (in PBS) and -7.34±0.94 mV in data set [4] (in PBS+10%FBS). The “Colloidal stability: size and PDI over time” value in data set [5] is on record as “remain unchanged for 7 d”.
